The target of this experiment is CGG-CC1 (human, UniProt Q13586 233-343). Description: SPR. On the technique in general: SPR reads the build-up and loss of mass on a sensor chip optically.
Chain of CGG-CC1 (Q13586 233-343): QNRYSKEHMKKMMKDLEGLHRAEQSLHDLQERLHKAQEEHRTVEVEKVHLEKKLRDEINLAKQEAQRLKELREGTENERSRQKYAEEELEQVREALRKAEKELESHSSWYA

B1: STIMATE-CT (analyte of the SPR) (domain or fragment)
chain: DNFLMRKGKTKAKLEERGANQDSRNGSKVRYRRAASHEESESEILISADDEMEESDVEEDLRRLTPLKPVKKKKHRFGLPV
As for B1, the Kd (in general, the equilibrium constant for the complex coming apart) came to 8.9 ± 0.7 µM.

Values taken from publication PMC4589512 (Nature cell biology, 2015).
